Assay results taken from doi:10.1101/2024.10.21.619555.

Target: DR6 ECD-Halo (UniProt O75509)
Assay: single-molecule dual-color photobleaching

Sequence of DR6 ECD-Halo (O75509 42-349): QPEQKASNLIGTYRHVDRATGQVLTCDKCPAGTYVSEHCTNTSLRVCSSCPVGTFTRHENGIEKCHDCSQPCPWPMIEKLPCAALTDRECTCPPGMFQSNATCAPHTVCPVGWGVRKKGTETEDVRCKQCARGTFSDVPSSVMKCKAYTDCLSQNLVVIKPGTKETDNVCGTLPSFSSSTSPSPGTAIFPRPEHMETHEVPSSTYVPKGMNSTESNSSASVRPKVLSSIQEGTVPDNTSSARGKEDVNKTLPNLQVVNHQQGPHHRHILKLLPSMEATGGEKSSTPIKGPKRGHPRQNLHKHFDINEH

RBP4-SNAP (from UniProt P02753 19-201) (ligand)
stoichiometry N: 1
